The source of these data is publication PMC5536852.

Where two headings read alike, the source gives them in different places.

The target of assay [1] is PP1γ, active form (His-tagged protein phosphatase 1 gamma) (UniProt P36873). Description: enzyme inhibition kinetics.
Assay [2] has the same target. Description: enzyme inhibition kinetics. This is another data set of the same source.

UniProt P36873, sequence (P36873 whole entry): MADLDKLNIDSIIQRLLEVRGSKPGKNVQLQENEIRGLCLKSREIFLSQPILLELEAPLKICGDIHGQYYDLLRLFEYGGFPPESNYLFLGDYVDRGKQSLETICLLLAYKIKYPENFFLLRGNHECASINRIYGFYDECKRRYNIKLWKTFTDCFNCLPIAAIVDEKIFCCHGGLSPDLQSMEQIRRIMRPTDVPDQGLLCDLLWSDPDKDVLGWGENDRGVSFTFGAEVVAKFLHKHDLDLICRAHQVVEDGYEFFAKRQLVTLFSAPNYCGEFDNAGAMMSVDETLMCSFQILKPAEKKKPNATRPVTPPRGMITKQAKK

Turning to “His-tagged RRM1 (isolated RNA recognition motif 1 of SRSF1) (domain or fragment)”, the inhibition constant Ki was found to be 410 nM in assay [1] and 350 nM in assay [2].

By Ki is commonly meant the dissociation constant of the complex between target and ligand, obtained from inhibition or displacement. The low end stands for tighter binding, the high end for weaker binding.
